Common to all, as to assay: fluorescence anisotropy; FA: 20 mM HEPES-NaOH pH 7.5, 100 mM NaCl, 10% glycerol, 20 C, 10 nM FAM-RNA; competition: 150 nM Egl512-819 + 10 nM FAM-K10 TLS, same buffer
What all share (conditions): protein: recombinant; tags: N-terminal GST; label: 5'-6-FAM; hairpin with two bulges

In data set [1] the target is T1, K659E/K754E (Drosophila melanogaster, UniProt Q9W1K4 512-819, K659E;K754E).
T1 sequence: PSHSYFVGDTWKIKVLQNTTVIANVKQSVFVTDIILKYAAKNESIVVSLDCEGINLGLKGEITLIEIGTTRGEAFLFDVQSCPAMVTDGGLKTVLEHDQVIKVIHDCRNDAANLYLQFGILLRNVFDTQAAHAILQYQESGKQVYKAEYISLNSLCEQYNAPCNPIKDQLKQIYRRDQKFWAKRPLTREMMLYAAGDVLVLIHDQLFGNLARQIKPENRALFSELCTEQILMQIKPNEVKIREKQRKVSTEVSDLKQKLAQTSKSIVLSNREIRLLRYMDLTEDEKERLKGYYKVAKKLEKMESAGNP

Data set [2] addresses T2, R753A (Drosophila melanogaster, UniProt Q9W1K4 512-819, R753A).
T2 sequence: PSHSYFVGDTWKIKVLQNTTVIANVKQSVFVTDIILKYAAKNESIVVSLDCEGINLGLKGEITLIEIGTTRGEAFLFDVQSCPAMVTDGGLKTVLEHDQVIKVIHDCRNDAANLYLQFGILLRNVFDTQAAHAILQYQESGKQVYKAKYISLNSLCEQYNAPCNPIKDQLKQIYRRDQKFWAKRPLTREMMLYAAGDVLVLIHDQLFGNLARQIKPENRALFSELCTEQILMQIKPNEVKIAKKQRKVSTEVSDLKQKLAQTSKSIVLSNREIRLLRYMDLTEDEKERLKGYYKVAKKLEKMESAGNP

In data set [3] the target is T3, K751A (Drosophila melanogaster, UniProt Q9W1K4 512-819, K751A).
T3 sequence: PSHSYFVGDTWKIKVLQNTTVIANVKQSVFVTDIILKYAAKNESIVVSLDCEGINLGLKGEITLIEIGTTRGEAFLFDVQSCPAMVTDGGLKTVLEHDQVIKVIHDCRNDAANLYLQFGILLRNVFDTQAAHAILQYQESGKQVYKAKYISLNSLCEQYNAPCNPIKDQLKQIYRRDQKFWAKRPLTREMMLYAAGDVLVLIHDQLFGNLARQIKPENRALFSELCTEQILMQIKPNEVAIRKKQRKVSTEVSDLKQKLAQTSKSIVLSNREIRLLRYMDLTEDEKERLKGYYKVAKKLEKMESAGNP

In data set [4] the target is T4, L-EHD (Egl743-819) (Drosophila melanogaster, UniProt Q9W1K4 743-819).
T4 sequence: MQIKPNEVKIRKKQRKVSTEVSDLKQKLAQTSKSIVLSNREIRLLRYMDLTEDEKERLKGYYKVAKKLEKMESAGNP

Data set [5] concerns the target T5, R619E (Drosophila melanogaster, UniProt Q9W1K4 512-819, R619E).
T5 sequence: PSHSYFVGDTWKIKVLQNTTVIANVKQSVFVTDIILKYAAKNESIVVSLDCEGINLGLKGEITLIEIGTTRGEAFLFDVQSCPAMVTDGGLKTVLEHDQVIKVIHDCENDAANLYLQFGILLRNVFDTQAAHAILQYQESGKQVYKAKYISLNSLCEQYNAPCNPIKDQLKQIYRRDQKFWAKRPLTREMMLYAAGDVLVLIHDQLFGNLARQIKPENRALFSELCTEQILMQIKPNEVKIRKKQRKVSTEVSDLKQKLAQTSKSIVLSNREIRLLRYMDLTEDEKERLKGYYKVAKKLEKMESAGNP

The target in data set [6] is T6, R753E (Drosophila melanogaster, UniProt Q9W1K4 512-819, R753E).
T6 sequence: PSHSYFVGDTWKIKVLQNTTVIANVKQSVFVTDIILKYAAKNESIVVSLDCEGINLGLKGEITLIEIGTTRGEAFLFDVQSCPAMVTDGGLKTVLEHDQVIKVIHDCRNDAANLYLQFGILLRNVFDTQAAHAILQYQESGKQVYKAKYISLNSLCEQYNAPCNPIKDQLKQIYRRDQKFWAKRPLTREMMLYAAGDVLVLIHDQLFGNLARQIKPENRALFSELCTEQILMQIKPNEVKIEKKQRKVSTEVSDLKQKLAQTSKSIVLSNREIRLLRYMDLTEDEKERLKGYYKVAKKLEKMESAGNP

As usually defined, the Kd is a measure of binding affinity in units of concentration.

Consider CUUGAUUGUAUUUUUAAAUUAAUUCUUAAAAACUACAAAUUAAG (structured_RNA) [K10 TLS (FAM)], for which the Kd in data set [1] came out at 433 ± 42 nM; in data set [2] it was 95 ± 5 nM; in data set [3], 140 ± 10 nM; in data set [4], 262 ± 9 nM; in data set [5] it was 318 ± 15 nM; in data set [6] it was 185 ± 9 nM.
